Here are results for two substances from publication PMC4951284.

For assay [1], the target named is VEGFR2 recombinant protein, intracellular domain (aa 789 to end) (UniProt P35968). Description: far-Western, overlay or dot blot; 0.5 to 8.0 ug VEGFR2 (aa 789 to end) on SDS-PAGE, transferred to PVDF; overlaid with V5-tagged L-FABP (1 ug/ml) for 12 hours; anti-V5 detection; Kd by non-linear regression (GraphPad Prism 5).
The target of assay [2] is VEGFR2 (Homo sapiens) (UniProt P35968). Description: ITC. The note with it: cited from earlier work.
For assay [3] the target is unchanged. Description: SPR. The conditions noted are these: cited from earlier work.

Usually Kd stands for the equilibrium constant for the complex coming apart.

For “Liver fatty acid-binding protein (L-FABP), V5-tagged recombinant protein expressed in Hus cells (from UniProt P07148 1-127) (natural protein)”, the Kd in assay [1] is 0.25 nM.

Take VEGF-A (from UniProt P15692): the Kd in assay [2] is 18 nM; in assay [3] it was 36.7 nM.
